Laboratory results: US11618906B2, “Hydroxylation techniques” (HYPHA DISCOVERY LTD., priority 2018, dated 2023)
Numbering of substitutions follows the chain as printed. In names and notes the source's numbering stands.

B1: aluC09M34: cytochrome P450 aluC09 mutant T291M; amino acid sequence SEQ ID NO: 48 (protein, listed as Amycolatopsis lurida)
chain: MTDVEETTATLPLARKCPFSPPPEYERLRRESPVSRVGLPSGQTAWALTRLEDIREMLSSPHFSSDRQSPSFPLMVARQIRREDKPFRPSLIAMDPPEHSRARRDVVGEFTVKRMKALQPRIQQIVDEHLDALLAGPKPADLVQALSLPVPSLVICELLGVPYSDHEFFQSCSSRMLSREVTAEERMTAFEQLENYLDELVTKKEANATEDDLLGRQILKQRETGEADHGELVGLAFLLLIAGHETTANMISLGTVTLLENPDQLAKIKADPGKTLAAIEELLRVFTIAEMATSRFATADVEIGGTLIRAGEGVVGLSNAGNHDPDGFENPDTFDIERGARHHVAFGFGVHQCLGQNLARLELQIVFDTLFRRVPGLRIAVPVDELPFKHDSTIYGLHALPVTW
B2: aluC09M20: cytochrome P450 aluC09 mutant T291V; amino acid sequence SEQ ID NO: 28 (protein, listed as Amycolatopsis lurida)
chain: B1 chain with M291V
B3: aluC09M19: cytochrome P450 aluC09 mutant T291A; amino acid sequence SEQ ID NO: 24 (protein, listed as Amycolatopsis lurida)
chain: B1 chain with M291A
B4: aluC09M11: cytochrome P450 aluC09 mutant T291D; amino acid sequence SEQ ID NO: 8 (protein, listed as Amycolatopsis lurida)
chain: B1 chain with M291D

Tests used:
Type in all cases: biochemical
[1] = Metabolism of epothilone B by P450 aluC09 and mutants; settings: percent of substrate being converted; 0.125 mg/ml, 27° C., 16-20 hours; [CYP] per enzyme as in Table 8
Procedure: (§1) Lyophilised material of mutants of CYP450aluC09, ferredoxinaluF03 and ferredoxin reductaseSCF15A was made as described in examples 3 and 4 and suspended in water (0.5 mL per vial) and biocatalysis was performed at 27° C. in the following conditions: 50 mM potassium phosphate pH 7.4, 5 mM MgCl2, 0.125 mg/ml substrate compound such as diclofenac (Sigma-Aldrich, UK), Aceclofenac (Tokyo Chemical Industry UK Ltd, UK), Indomethacin (Sigma-Aldrich, UK), Flufenamic acid (Sigma-Aldrich, UK), Napropamide (Sigma-Aldrich, UK), celecoxib (LC Laboratories, USA), valsartan (Tokyo Chemical Industry UK Ltd, UK), ruxolitinib (LC Laboratories, USA), 4-pyrrolidylacetophenone (Sigma-Aldrich, UK), tofacitinib (LC Laboratories, USA), bosentan (CarboSynth Ltd, UK), buparvaquone (MedChemtronica, Sweden), BIRB796 (Stratech Scientific Limited, UK), epothilone B (LC Laboratories, USA), ritonavir (Tokyo Chemical Industry UK Ltd, UK) or tivantinib (MedChemtronica, Sweden), P450AluC09 (concentration as in Table 8), 5 mM G6P, 1 mM NADP, 2 UN/ml G6PDH in a final volume of 100 μL. After 16-20 hours at 200 rpm (5 cm orbital shaker, Kuhner AG, Switzerland), reactions were extracted with an equal volume of acetonitrile, centrifuged to remove precipitated proteins and conversion assessed by UPLC-MS analysis.
(§2) However, of particular note when considering P450 concentration are the results for mutants M12, M20 and M34, as well as the deleterious impact on the range of substrate utility in mutants M39 and M40.

[2] = Metabolism of buparvaquone by P450 aluC09 and mutants; settings: percent of substrate being converted; 0.125 mg/ml, 27° C., 16-20 hours; [CYP] per enzyme as in Table 8
Procedure: as §1, §2

[3] = Hydroxylation of diclofenac catalysed by cytochrome P450 aluC09 and mutants (UPLC-PDA-MS); settings: for 4′,5-dihydroxy-diclofenac 1.38 mins / 4′-hydroxy-diclofenac (1) 1.62 mins / 5-hydroxy-diclofenac (2) 1.58 mins / Diclofenac (Substrate) 1.81 mins: % by UV peak area at 275 nm, 0.125 mg/ml substrate, 27° C., 16-20 hours; for Hydroxylated Ratio hydroxy 1:hydroxy 2: diclofenac, ratio of UV peak areas at 275nm
Procedure: as §1
(§3) UPLC data was obtained as follows:
(§4) Column: Acquity UPLC BEH Shield RP18 1.7 μm 2.1 mm i.d. 50 mm length
(§5) Solvents: H2O, B: Acetonitrile, both with 0.1% Formic acid
(§6) Detector: Waters Acquity UPLC PDA (UV-Vis detection) and Waters Acquity UPLC QDA (MS)
Illustrative results for the hydroxylation of diclofenac by CYP450aluC09 and selected T291x mutants are summarised below in Table 3 with representative chromatograms resented in FIG. 3a-c; retention times: diclofenac 1.85-1.88 minutes, 5-hydroxydiclofenac 1.60-1.63 minutes, 4′-hydroxydiclofenac 1.65-1.68 minutes, 4′,5-dihydroxydiclofenac 1.40-1.42 minutes. The chromatographic retention times and mass spectra coincided with those of authentic samples.

[4] = Metabolism of valsartan by P450 aluC09 and mutants; settings: percent of substrate being converted; 0.125 mg/ml, 27° C., 16-20 hours; [CYP] per enzyme as in Table 8
Procedure: as §1, §2

[5] = Metabolism of celecoxib by P450 aluC09 and mutants; settings: percent of substrate being converted; 0.125 mg/ml, 27° C., 16-20 hours; [CYP] per enzyme as in Table 8
Procedure: as §1, §2

[6] = Hydroxylation of aceclofenac catalysed by cytochrome P450 aluC09 and mutants; settings: for Aceclofenac (Substrate) (1.80 mins) / Dihydroxy-Aceclofenac (1.42 mins) / Hydroxy-Aceclofenac (1) (1.64 min) / Hydroxy-Aceclofenac (2) (1.60 min): % by UV peak area at 275 nm, 0.125 mg/ml substrate, 27° C., 16-20 hours; for Hydroxylated Ratio 2:1: aceclofenac, ratio of UV peak areas at 275 nm
Procedure: as §1, §3, §4, §5, §6
Chromatograms are provided in FIGS. 5a-c; aceclofenac elutes at 1.80 minutes, hydroxy-aceclofenac acid 1 elutes at 1.64 minutes, hydroxy-aceclofenac acid 2 elutes at 1.60 minutes and dihydroxy-aceclofenac elutes at 1.42 minutes.

[7] = O-demethylation of indomethacin catalysed by cytochrome P450 aluC09 and mutants; settings: % by UV peak area at 275 nm; 0.125 mg/ml substrate, 27° C., 16-20 hours
Procedure: as §1, §3, §4, §5, §6

[8] = Metabolism of tivantinib by P450 aluC09 and mutants; settings: percent of substrate being converted; 0.125 mg/ml, 27° C., 16-20 hours; [CYP] per enzyme as in Table 8
Procedure: as §1, §2

[9] = Metabolism of tofacitinib by P450 aluC09 and mutants; settings: percent of substrate being converted; 0.125 mg/ml, 27° C., 16-20 hours; [CYP] per enzyme as in Table 8
Procedure: as §1, §2

[10] = Metabolism of ritonavir by P450 aluC09 and mutants; settings: percent of substrate being converted; 0.125 mg/ml, 27° C., 16-20 hours; [CYP] per enzyme as in Table 8
Procedure: as §1, §2

[11] = Metabolism of BIRB796 by P450 aluC09 and mutants; settings: percent of substrate being converted; 0.125 mg/ml, 27° C., 16-20 hours; [CYP] per enzyme as in Table 8
Procedure: as §1, §2

[12] = Hydroxylation of flufenamic acid catalysed by cytochrome P450 aluC09 and mutants; settings: for Flufenamic Acid (Substrate) 1.93 mins / Hydroxy-Flufenamic Acid (1) 1.69 mins / Hydroxy-Flufenamic Acid (2) 1.65 mins: % by UV peak area at 275 nm, 0.125 mg/ml substrate, 27° C., 16-20 hours; for Hydroxylated Ratio 1:2: flufenamic acid, ratio of UV peak areas at 275 nm
Procedure: as §1, §3, §4, §5, §6
Flufenamic acid elutes at 1.93 minutes, hydroxy-flufenamic acid 1 elutes at 1.68 minutes and hydroxy-flufenamic acid 2 elutes at 1.65 minutes.

[13] = Hydroxylation / de-N-ethylation of napropamide catalysed by cytochrome P450 aluC09 and mutants; settings: for Desethyl Napropamide (1.62 min) / Desethyl-hydroxy-Napropamide (1.41 min) / Hydroxy-Napropamide (1) (1.53 min) / Hydroxy-Napropamide (2), (1.52 min) / M-2Da (unidentified) (1.89 min) / Napropamide (substrate): % by UV peak area at 275 nm, 0.125 mg/ml substrate, 27° C., 16-20 hours; for Hydroxylated Ratio 2:1: napropamide, ratio of UV peak areas
Procedure: as §1, §3, §4, §5, §6
Napropamide elutes at 1.76 minutes, unidentified metabolite (−2 Da) elutes at 1.90 minutes, desethyl-napropamide elutes at 1.62 minutes, hydroxy-napropamide 1 elutes at 1.53 minutes and hydroxy-napropamide 2 elutes at 1.52 minutes and the desethyl-hydroxy-napropamide product elutes at 1.41 minutes.

[14] = Metabolism of bosentan by P450 aluC09 and mutants; settings: percent of substrate being converted; 0.125 mg/ml, 27° C., 16-20 hours; [CYP] per enzyme as in Table 8
Procedure: as §1, §2

[15] = Metabolism of 4-pyrrolidylacetophenone by P450 aluC09 and mutants; settings: percent of substrate being converted; 0.125 mg/ml, 27° C., 16-20 hours; [CYP] per enzyme as in Table 8
Procedure: as §1, §2

[16] = Metabolism of ruxolitinib by P450 aluC09 and mutants; settings: percent of substrate being converted; 0.125 mg/ml, 27° C., 16-20 hours; [CYP] per enzyme as in Table 8
Procedure: as §1, §2

| Molecule | % conversions (avg) Epothilone B [1] [%] | % conversions (avg) Buparvaquone [2] [%] | 4′,5-dihydroxy-diclofenac 1.38 mins [3] [%] | 4′-hydroxy-diclofenac (1) 1.62 mins [3] [%] | 5-hydroxy-diclofenac (2) 1.58 mins [3] [%] | Diclofenac (Substrate) 1.81 mins [3] [%] | Hydroxylated Ratio hydroxy 1:hydroxy 2 [3] | % conversions (avg) Celecoxib [5] [%] | Aceclofenac (Substrate) (1.80 mins) [6] [%] | Dihydroxy-Aceclofenac (1.42 mins) [6] [%] | Hydroxy-Aceclofenac (1) (1.64 min) [6] [%] | Hydroxy-Aceclofenac (2) (1.60 min) [6] [%] | Hydroxylated Ratio 2:1 [6] | Indomethacin (1.74 mins) [7] [%] | O-demethyl-Indomethacin (1.52 mins) [7] [%] | % conversions (avg) Tivantinib [8] [%] | % conversions (avg) Tofacitinib [9] [%] | % conversions (avg) Ritonavir [10] [%] | Flufenamic Acid (Substrate) 1.93 mins [12] [%] | Hydroxy-Flufenamic Acid (1) 1.69 mins [12] [%] | further results |
| --- | --- | --- | --- | --- | --- | --- | --- | --- | --- | --- | --- | --- | --- | --- | --- | --- | --- | --- | --- | --- | --- |
| B1 | 30.7 | 11.6 | 1.3 | 35.3 | 10.4 | 53.6 | 3.4 | 6.8 | 36.6 | 21.3 | 15.2 | 26.8 | 1.8 | 96.2 | 3.8 | 59.1 | 3.1 | 50.3 | 94.0 | 3.8 | % conversions (avg) Valsartan [4]: 43.2%; % conversions (avg) BIRB796 [11]: 18%; Hydroxy-Flufenamic Acid (2) 1.65 mins [12]: 2.2%; Hydroxylated Ratio 1:2 [12]: 1.7; Desethyl Napropamide (1.62 min) [13]: 40.7%; Desethyl-hydroxy-Napropamide (1.41 min) [13]: 5.3%; Hydroxy-Napropamide (1) (1.53 min) [13]: 3.4%; Hydroxy-Napropamide (2), (1.52 min) [13]: 3.7%; M-2Da (unidentified) (1.89 min) [13]: 5.3%; Napropamide (substrate) [13]: 44.0%; Hydroxylated Ratio 2:1 [13]: 1.1; % conversions (avg) Bosentan [14]: 99%; % conversions (avg) 4-pyrrolidylacetophenone [15]: 7.3% |
| B2 | 21.1 | 15.4 | 3.1 | 50.1 | 13.7 | 34.8 | 3.7 | 2.2 | 4.2 | 35.1 | 33.1 | 27.6 | 0.8 | 89.2 | 10.8 | 22.2 | 4.5 | 100 | 93.6 | 4.4 | % conversions (avg) Valsartan [4]: 13.1%; % conversions (avg) BIRB796 [11]: 22.4%; Hydroxy-Flufenamic Acid (2) 1.65 mins [12]: 2.0%; Hydroxylated Ratio 1:2 [12]: 2.2; Desethyl Napropamide (1.62 min) [13]: 56.2%; Desethyl-hydroxy-Napropamide (1.41 min) [13]: 7.6%; Hydroxy-Napropamide (1) (1.53 min) [13]: 2.1%; Hydroxy-Napropamide (2), (1.52 min) [13]: 6.1%; M-2Da (unidentified) (1.89 min) [13]: 4.7%; Napropamide (substrate) [13]: 25.3%; Hydroxylated Ratio 2:1 [13]: 2.9; % conversions (avg) Ruxolitinib [16]: 70.7% |
| B3 | 4.5 | 17.1 | 2.4 | 50.0 | 14.2 | 34.8 | 3.5 | 4.5 | 6.7 | 48.3 | 6.5 | 38.5 | 5.9 | 93.5 | 6.5 | 26.1 | 0 | 65.4 | 90.4 | 5.8 | % conversions (avg) BIRB796 [11]: 16.6%; Hydroxy-Flufenamic Acid (2) 1.65 mins [12]: 3.8%; Hydroxylated Ratio 1:2 [12]: 1.5; Desethyl Napropamide (1.62 min) [13]: 50.1%; Desethyl-hydroxy-Napropamide (1.41 min) [13]: 4.9%; Hydroxy-Napropamide (1) (1.53 min) [13]: 2.3%; Hydroxy-Napropamide (2), (1.52 min) [13]: 3.9%; M-2Da (unidentified) (1.89 min) [13]: 6.1%; Napropamide (substrate) [13]: 34.3%; Hydroxylated Ratio 2:1 [13]: 1.7; % conversions (avg) Ruxolitinib [16]: 50.8%; % conversions (avg) 4-pyrrolidylacetophenone [15]: 0.7% |
| B4 | 8.5 | 15.8 | 2.3 | 25.3 | 25.1 | 48.3 | 1.0 | 3.2 | 17.5 | 35.2 | 6.3 | 41.0 | 6.5 | 92.6 | 7.4 | 34.2 | 1.4 | 57.3 | 94.7 | 3.4 | % conversions (avg) Valsartan [4]: 26%; Hydroxy-Flufenamic Acid (2) 1.65 mins [12]: 1.9%; Hydroxylated Ratio 1:2 [12]: 1.8; Desethyl Napropamide (1.62 min) [13]: 36.6%; Desethyl-hydroxy-Napropamide (1.41 min) [13]: 8.7%; Hydroxy-Napropamide (1) (1.53 min) [13]: 1.5%; Hydroxy-Napropamide (2), (1.52 min) [13]: 3.1%; M-2Da (unidentified) (1.89 min) [13]: 6.7%; Napropamide (substrate) [13]: 47.6%; Hydroxylated Ratio 2:1 [13]: 2.1; % conversions (avg) Ruxolitinib [16]: 35.7%; % conversions (avg) Bosentan [14]: 100%; % conversions (avg) 4-pyrrolidylacetophenone [15]: 21.4% |
